Literature values, collected in patent publication US20110015587A1, “Irrigation Device and Method Using Same” (priority 2009, published 2011).

Test system: fibroblasts
Settings: in six hours; through motility of fibroblasts

B1: Lactoferrin (protein, UniProt P02788 20-710, looked up)
Lactotransferrin: GRRRSVQWCAVSQPEATKCFQWQRNMRKVRGPPVSCIKRDSPIQCIQAIAENRADAVTLDGGFIYEAGLAPYKLRPVAAEVYGTERQPRTHYYAVAVVKKGGSFQLNELQGLKSCHTGLRRTAGWNVPIGTLRPFLNWTGPPEPIEAAVARFFSASCVPGADKGQFPNLCRLCAGTGENKCAFSSQEPYFSYSGAFKCLRDGAGDVAFIRESTVFEDLSDEAERDEYELLCPDNTRKPVDKFKDCHLARVPSHAVVARSVNGKEDAIWNLLRQAQEKFGKDKSPKFQLFGSPSGQKDLLFKDSAIGFSRVPPRIDSGLYLGSGYFTAIQNLRKSEEEVAARRARVVWCAVGEQELRKCNQWSGLSEGSVTCSSASTTEDCIALVLKGEADAMSLDGGYVYTAGKCGLVPVLAENYKSQQSSDPDPNCVDRPVEGYLAVAVVRRSDTSLTWNSVKGKKSCHTAVDRTAGWNIPMGLLFNQTGSCKFDEYFSQSCAPGSDPRSNLCALCIGDEQGENKCVPNSNERYYGYTGAFRCLAENAGDVAFVKDVTVLQNTDGNNNEAWAKDLKLADFALLCLDGKRKPVTEARSCHLAMAPNHAVVSRMDKVERLKQVLLHQQAKFGRNGSDCPDKFCLFQSETKNLLFNDNTECLARLHGKTTYEKYLGPQYVAGITNLKKCSTSPLLEACEFLRK
- reduction of collagen gel surface area: 50%
